Where a chain is given by its changes, count along the chain named.
T1: PlexA‐mClover (Drosophila melanogaster, UniProt Q9V491 28-1311)
T1 construct: Plexin A (PlexA), Drosophila melanogaster, residues 28–1,311: ectodomain followed by a transmembrane segment; not the purified PlexA‐mClover (residues 67–1,274) used as donor-only control in solution; also called FRET donor PlexA‐mClover; source: COS-7, transiently transfected, on live cells; not shown: mClover, C-terminal, kept
T1 sequence (looked up): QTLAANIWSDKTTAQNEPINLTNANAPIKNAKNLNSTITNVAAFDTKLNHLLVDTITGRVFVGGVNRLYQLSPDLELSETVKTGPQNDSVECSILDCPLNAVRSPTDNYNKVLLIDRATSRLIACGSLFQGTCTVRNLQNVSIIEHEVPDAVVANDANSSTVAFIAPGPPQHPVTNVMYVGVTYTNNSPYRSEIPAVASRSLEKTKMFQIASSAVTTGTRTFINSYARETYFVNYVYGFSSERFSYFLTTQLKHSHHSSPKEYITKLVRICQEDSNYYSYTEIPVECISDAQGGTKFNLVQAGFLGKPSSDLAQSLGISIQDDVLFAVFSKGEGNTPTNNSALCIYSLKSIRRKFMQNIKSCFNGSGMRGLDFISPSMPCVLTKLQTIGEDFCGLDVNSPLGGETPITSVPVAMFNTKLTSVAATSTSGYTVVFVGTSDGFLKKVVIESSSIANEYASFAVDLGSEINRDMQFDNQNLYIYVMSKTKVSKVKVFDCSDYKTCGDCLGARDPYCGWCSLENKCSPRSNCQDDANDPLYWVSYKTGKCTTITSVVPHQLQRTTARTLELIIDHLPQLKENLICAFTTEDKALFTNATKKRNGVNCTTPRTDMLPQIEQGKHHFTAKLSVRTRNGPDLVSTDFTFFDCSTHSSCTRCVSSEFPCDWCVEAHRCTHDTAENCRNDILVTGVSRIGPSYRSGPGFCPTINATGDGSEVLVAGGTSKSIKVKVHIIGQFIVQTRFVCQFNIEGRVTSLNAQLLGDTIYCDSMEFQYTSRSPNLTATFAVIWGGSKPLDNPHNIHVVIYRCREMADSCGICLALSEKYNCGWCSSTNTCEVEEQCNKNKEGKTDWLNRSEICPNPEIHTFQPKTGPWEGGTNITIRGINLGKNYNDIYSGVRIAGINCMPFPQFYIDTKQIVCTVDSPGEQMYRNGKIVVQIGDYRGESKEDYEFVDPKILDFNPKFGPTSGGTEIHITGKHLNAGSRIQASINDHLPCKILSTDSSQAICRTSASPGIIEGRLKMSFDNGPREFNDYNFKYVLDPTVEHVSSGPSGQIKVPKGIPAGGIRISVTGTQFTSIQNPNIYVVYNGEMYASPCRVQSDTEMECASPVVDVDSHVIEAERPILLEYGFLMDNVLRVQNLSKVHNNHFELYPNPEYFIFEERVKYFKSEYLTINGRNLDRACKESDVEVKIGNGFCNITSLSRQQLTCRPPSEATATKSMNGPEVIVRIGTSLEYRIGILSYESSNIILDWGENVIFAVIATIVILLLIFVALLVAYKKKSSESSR

B1: Sema1b‐mRuby2 (ligand, Drosophila melanogaster, UniProt Q7KK54 37-686, looked up)
chain: DVKPDLQTKQDKVLAHFIGNSTDYFKILDHNDEFVLVGAKDVIYNVSLNGLKEIARLEWHSTDADRELCALKGKHEWDCHNYLRVYALRPNGEVLLCGTNSYKPRCRHYTPVEVSSEEAGSAGHAHAMRYEVSRDVEAQGLCPYSPAHNSTYAFADGHLYSATVADFSGGDPLIYRENLRTEQYDLKQLNQPDFVGAIERNGYVLFFFRELSMEVMNFGKAVYSRVARVCKNDRGGPYSHGKSWTSFLKARLNCSVPGEFPFYFDEIQAISPIVESGSKSLIYAVFTTSVNAIPGSAVCAFNVDDILAAFDGEFKSQKDSQSHWLPVEREQVPKPRPGQCVEDSRTLTSIAVNFIKNHPLMEEAVPAVHGRPLLTKVNLHHRLTAIAVHPQVKSLSGAYYDVIYSGTDDGKVTKFINILSTHPNSTVDRLKTVVISEMQVLPLGTPIRELVISTSKNSLVVVSDGSLVSVPLHHCSHIVDCLGCLSLQDPICAWDLQTHECKNLATSQHKFGTKTYLQSLNSTKKAAALLCPHIPRDAPGAETVSFVTMAPPPTEEQKLLYSNVGSSQGNQPSLEQQPTGGDDFGLNKITLTSMDPDDIMPNLNDPQKSTASVDEIKYASTPSFMLLTTIVFFTFLVGGIAGICCVKAKS
notes: Semaphorin 1b (Sema1b), Drosophila melanogaster, residues 37–686: ectodomain followed by a transmembrane segment; also called wild‐type Sema1b‐mRuby2; source: COS-7, transiently transfected, on live cells; not shown: mRuby2, C-terminal, kept
B2: Sema1b‐mutA‐mRuby2 (ligand, Drosophila melanogaster, UniProt Q7KK54 37-686, looked up)
chain: B1 chain with F167E, Q183R, K187E
notes: Semaphorin 1b (Sema1b), Drosophila melanogaster, residues 37–686, site A mutant; source: COS-7, transiently transfected, on live cells; not shown: mRuby2, C-terminal, kept
B3: Sema1b‐mutB‐mRuby2 (ligand, Drosophila melanogaster, UniProt Q7KK54 37-686, looked up)
chain: DVKPDLQTKQDKVLAHFIGNSTDYFKILDHNDEFVLVGAKDVIYNVSLNGLKEIARLEWHSTDADRELCALKGKHEWDCHNYLRVYALRPNGEVLLCGTNSYKPRCRHYTPVEVSSEEAGSAGHAHAMRYEVSRDVEAQGLCPYSPAHNSTYAFADGHLYSATVADFSGGDPLIYRENLRTEQYDLKQLNQPDFVGAIERNGYVLFFFRELSMEVMNFGKAVYSRVARVCKNDRGGPYSHGKSWTSFLKARLNCSVPGEFPFYFDEIQAISPIVESGSKSLIYAVFTTSVNAIPGSAVCAFNVDDILAAFDGEAAAAAAAAAAAAAAAAAAVPKPRPGQCVEDSRTLTSIAVNFIKNHPLMEEAVPAVHGRPLLTKVNLHHRLTAIAVHPQVKSLSGAYYDVIYSGTDDGKVTKFINILSTHPNSTVDRLKTVVISEMQVLPLGTPIRELVISTSKNSLVVVSDGSLVSVPLHHCSHIVDCLGCLSLQDPICAWDLQTHECKNLATSQHKFGTKTYLQSLNSTKKAAALLCPHIPRDAPGAETVSFVTMAPPPTEEQKLLYSNVGSSQGNQPSLEQQPTGGDDFGLNKITLTSMDPDDIMPNLNDPQKSTASVDEIKYASTPSFMLLTTIVFFTFLVGGIAGICCVKAKS
notes: Semaphorin 1b (Sema1b), Drosophila melanogaster, residues 37–686, loop 350–367 replaced by alanines; source: COS-7, transiently transfected, on live cells; not shown: mRuby2, C-terminal, kept

Molecular target: T1, PlexA‐mClover
Test: FRET or BRET; FRET-FLIM in live COS-7 cells transiently co-transfected with PlexA‐mClover (donor) and semaphorin‐mRuby2 (acceptor), cis on one cell surface, 37°C; donor alone τav 2.72 ± 0.03 ns
Conditions: partners not purified

Row | Binder | average donor lifetime (τav) | average fraction of the interacting donor (fD)
1 | B1 | 2.51 ± 0.06 ns | 0.26 ± 0.09
2 | B2 | 2.43 ± 0.1 ns | 0.37 ± 0.15
3 | B3 | 2.53 ± 0.04 ns | 0.21 ± 0.07

Reference: article PMC7327498, “Structural basis of semaphorin‐plexin cis interaction” (The EMBO Journal, 2020)
